Experimental data: patent US20240352105A1, “COMPOSITIONS AND METHODS FOR NEUTRALIZING ANTIGENS” (PACAGEN, INC, priority 2023, published 2024)
Several values for one entry are separate records, joined by “and”; a condition that tells them apart may be missing. Equal entries are not always repeated. No end group written: not given here.

Tests used:
[1] = test system: known Der p1 antibody (clone 10B9); experiment: Recombinant Der p1-His ELISA binding assay
Protocol: In order to obtain single variable domain on heavy chain, i.e., VHH, specific for dust mite allergen Der p1, a recombinant His-tagged Der p1 was prepared, which reached high purity, as shown via SDS-Page Western blotting in FIG. 8. To confirm this, an ELISA was performed measuring optical density when the recombinant Der p1-His is incubated with a known Der p1 antibody (clone 10B9). As summarized in Table 11, the recombinant Der p1-His was effectively bound by the antibody.

[2] = Thermostability (Tm, Tonset, Tagg) by Nanotemper DSF; type: physicochemical; set-up: key to Tm2 / Tagg / Tm1 / Tm / Tm3 / Tonset / Tonset ø (mean) / Tagg ø (mean): temperatures in °C
In short: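 Isolated VHH clones were heated from 20 °C to 95 °C at 1 °C/min using DSF. Tm, Tonset and Tagg were derived from the thermal curves. Where several melting transitions occurred, each was reported in order (Tm1, Tm2, etc.).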

Fel D1 = experiment: ELISA binding assay of anti-Fel d1 VHH clones on Fel D1 epitopes; set-up: species or system cat; settings: Epitope Recognized FAVANGNELLLDLS (SEQ ID NO: 59)
Protocol: 2 microgram per milliliter (μg/mL) target antigen is coated in a 96-well plate and ELISA assay is performed after incubation with candidate VHHs. The binding EC50 of each clone is calculated using Prism GraphPad. The positive control antibody is involved as an internal control.
Four distinct epitopes of Fel D1 were selected to be used for further identification. Peptides were synthesized for the four epitopes for VHH identification.
Isolated VHH clones were further validated by performing an ELISA assay as described in Example 1. Binding results are shown in FIG. 15B-15D for the epitope of SEQ ID NO: 61. Binding results are shown in FIG. 16 for the epitope of SEQ ID NO: 59. Binding results are shown in FIG. 17A-17E for the epitope of SEQ ID NO: 60. Binding results are shown in FIG. 18 for the epitope of SEQ ID NO: 58.

recombinant Fel d1-His = molecular target: T1, recombinant Fel d1-His (Felis catus, UniProt P30438+P30440); experiment: Recombinant Fel D1 His binding assay with positive control antibodies; set-up: species or system cat
T1 construct: His; made in house
T1 sequence (P30438 23-92): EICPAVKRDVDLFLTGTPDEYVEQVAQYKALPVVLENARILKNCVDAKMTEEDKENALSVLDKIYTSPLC
T1 sequence (P30440 18-109): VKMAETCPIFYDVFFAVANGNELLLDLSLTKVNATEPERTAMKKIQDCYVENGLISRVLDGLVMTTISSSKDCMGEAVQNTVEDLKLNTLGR
Protocol: In order to obtain single variable domain on heavy chain, i.e., VHH, specific for cat allergen Fel D1, a recombinant His-tagged Fel D1 was prepared, which reached high purity, as shown via SDS-Page Western blotting in FIG. 14. To confirm this, an ELISA was performed measuring optical density when the recombinant Fel d1-His is incubated with two known Fel D1 antibodies which are summarized in Table 18. As summarized in Table 19, the recombinant Fel d1-His was effectively bound by both antibodies.

[3] = molecular target: T2, recombinant His-tagged Der p1 (dust mite, UniProt P08176 99-320, limits assumed); experiment: ELISA, Der p1 on plate, biotinylated peptide at 0.370, duplicate 1
T2 construct: Recombinant His-tagged protein made by the applicant; also called Der p1-His; Der pl; not shown: His tag
T2 sequence (looked up): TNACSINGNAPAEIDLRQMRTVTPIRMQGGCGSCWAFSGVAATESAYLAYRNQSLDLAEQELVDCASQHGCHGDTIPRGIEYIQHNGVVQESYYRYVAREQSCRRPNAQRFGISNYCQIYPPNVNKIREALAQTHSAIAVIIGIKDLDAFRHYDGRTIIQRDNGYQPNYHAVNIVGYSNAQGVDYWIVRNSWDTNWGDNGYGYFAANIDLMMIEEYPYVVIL
Protocol: (§1) An ELISA was used to validate identified peptides. Der p1 was bound to the bottom of a plate. Different concentrations of the chosen (biotinylated) peptides were added and then washed. Then, HRP-streptavidin (which binds to the biotin) was added and an OD at 450 nm is measured. Duplicate measurements are separated by commas.

[4] = molecular target: T2, recombinant His-tagged Der p1; experiment: ELISA, Der p1 on plate, biotinylated peptide at 1.111, duplicate 1
Protocol: as §1

[5] = molecular target: T2, recombinant His-tagged Der p1; experiment: ELISA, Der p1 on plate, biotinylated peptide at 1.111, duplicate 2
Protocol: as §1

[6] = molecular target: T2, recombinant His-tagged Der p1; experiment: ELISA, Der p1 on plate, biotinylated peptide at 0.123, duplicate 1
Protocol: as §1

[7] = molecular target: T2, recombinant His-tagged Der p1; experiment: ELISA, Der p1 on plate, biotinylated peptide at 30, duplicate 2
Protocol: as §1

[8] = molecular target: T2, recombinant His-tagged Der p1; experiment: ELISA, Der p1 on plate, biotinylated peptide at 0.041, duplicate 1
Protocol: as §1

[9] = molecular target: T2, recombinant His-tagged Der p1; experiment: ELISA, Der p1 on plate, biotinylated peptide at 10, duplicate 1
Protocol: as §1

[10] = molecular target: T2, recombinant His-tagged Der p1; experiment: ELISA, Der p1 on plate, biotinylated peptide at 10, duplicate 2
Protocol: as §1

[11] = molecular target: T2, recombinant His-tagged Der p1; experiment: ELISA, Der p1 on plate, biotinylated peptide at 0.041, duplicate 2
Protocol: as §1

[12] = molecular target: T2, recombinant His-tagged Der p1; experiment: ELISA, Der p1 on plate, biotinylated peptide at 3.333, duplicate 1
Protocol: as §1

[13] = molecular target: T2, recombinant His-tagged Der p1; experiment: ELISA, Der p1 on plate, biotinylated peptide at 3.333, duplicate 2
Protocol: as §1

[14] = molecular target: T2, recombinant His-tagged Der p1; experiment: ELISA, Der p1 on plate, biotinylated peptide at 0.370, duplicate 2
Protocol: as §1

[15] = molecular target: T2, recombinant His-tagged Der p1; experiment: ELISA, Der p1 on plate, biotinylated peptide at 0.123, duplicate 2
Protocol: as §1

[16] = molecular target: T2, recombinant His-tagged Der p1; experiment: ELISA, Der p1 on plate, biotinylated peptide at 30, duplicate 1
Protocol: as §1

[17] = Average of two replicates, anti-Fel d1 VHH
[18] = Average of two replicates, anti-Fel d1 VHH, in °C (unit assumed)
[19] = Replicate 1, in °C (unit assumed)
[20] = Replicate 2, in °C (unit assumed)
[21] = Volume of Fel D1-His 10 μL (concentration ~1 μg/μL)
[22] = Volume of Fel D1-His 50 μL (concentration ~1 μg/μL)
[23] = Volume of Fel D1-His 100 μL (concentration ~1 μg/μL)

B1: Der p1-His: recombinant His-tagged dust mite allergen Der p1 (protein)
chain: T2 sequence (looked up)
modifications: left off: small tags and cut ends
Q: Which results are given for B1?
A: OD at 450 nm ([1]; Der p1-His Concentration 0.00064 μg/mL): 0.13 and 0.12; OD at 450 nm ([1]; Der p1-His Concentration 0.016 μg/mL): 0.20 and 0.17; OD at 450 nm ([1]; Der p1-His Concentration 0.08 μg/mL): 0.58 and 0.49; OD at 450 nm ([1]; Der p1-His Concentration 0.4 μg/mL): 1.80 and 1.87; OD at 450 nm ([1]; Der p1-His Concentration 2 μg/mL): 4.03 and 4.31; OD at 450 nm ([1]; Der p1-His Concentration 10 μg/mL): 4.37 and 4.40

B2: SDAB22110-3-1-D9-1: anti-Fel d1 VHH clone, SEQ ID NO: 52 (protein)
VHH: AVQLVESGGGLVQPGGSLRLSCIISGFTSVSYSIVWFRQAPGKGREGVSCIGSSGGSTDYIDSVKGRFTISRDSAKNTVYLQMDCLKPEDTAVYYCAALRDVYRLCVIDYMNNDYWGQGTQVTVSS
Q: Which “Tagg ø (mean)” value [2, 17] does the source give for B2 here?
A: 42.78

Q: What about the “Tonset ø (mean)” value [2, 17] of the same molecule?
A: 32.74

Q: What about the “Tm ø (mean), first melting point (Tm1)” value [2, 18] of the same molecule?
A: 41.13

Q: What about the “Tm ø (mean), second melting point (Tm2)” value [2, 18] of the same molecule?
A: 52.88

Q: What about the Tagg ([2]; Replicate 1) of the same molecule?
A: 42.76

Q: And the Tonset ([2]; Replicate 1)?
A: 32.57

Q: What about the “Tm, first melting point (Tm1)” value [2, 19] of the same molecule?
A: 41.01

Q: What about the “Tm, second melting point (Tm2)” value [2, 19] of the same molecule?
A: 52.86

Q: And the Tagg ([2]; Replicate 2)?
A: 42.80

Q: And the Tonset ([2]; Replicate 2)?
A: 32.90

Q: And the “Tm, first melting point (Tm1)” value [2, 20]?
A: 41.25

Q: What about the “Tm, second melting point (Tm2)” value [2, 20] of the same molecule?
A: 52.91

Q: What about the Tagg ([2]; anti-Fel d1 VHH) of the same molecule?
A: 42.30

Q: And the Tm ([2]; anti-Fel d1 VHH, single melting point, in °C (unit assumed))?
A: 47.50

Q: What about the EC50 (Fel D1) of the same molecule?
A: 12.940 µg/mL

B3: 370VH + 378VL: known Fel D1 positive control antibody, heavy chain SEQ ID NO: 64, light chain SEQ ID NO: 65 (antibody, V domains shown)
VH: EVQLVESGGGLAQPGGSLRLSCAASGFTFNNYAMTWVRQAPGKGLDWVSAISDSGRSTFSADSVKGRFTISRDNSKNTLYLQMDSLRAEDTALYYCAKHRNWNYPVFDYWGQGTLVTVSS
VL: DIQLTQSPSFLSASVGDRVTITCWASQGISSYLAWYQQKPGKAPKLLIYSASTLQSGVPSRFSGSGSGTEFTLTISSLQPEDFATYYCQQLNSYPFTFGPGTKVDIK
Q: What does the source list for B3?
A: OD450 Using Positive Control (recombinant Fel d1-His; [21]): 4.47 and 4.44; OD450 Using Positive Control (recombinant Fel d1-His; [22]): 4.55 and 4.53; OD450 Using Positive Control (recombinant Fel d1-His; [23]): 4.60

B4: 18VH + 378VL: known Fel D1 positive control antibody, heavy chain SEQ ID NO: 66, light chain SEQ ID NO: 65 (antibody, V domains shown)
VH: EVQLVESGGGLVKPGGSLRLSCAASGFTFRNYNINWVRQAPGKGLEWVSLISGSSSYIYYADSVKGRFTVSRDNAKNSLYLQMNSLRAEDTAVYYCARRTLSYYVMDVWGQGTTVTVSS
VL: B3 VL
Q: Which “OD450 Using Positive Control” value (recombinant Fel d1-His; [21]) does the source give for B4 here?
A: 4.47 and 4.44

Q: And the “OD450 Using Positive Control” value (recombinant Fel d1-His; [22])?
A: 4.55 and 4.53

Q: What about the “OD450 Using Positive Control” value (recombinant Fel d1-His; [23]) of the same molecule?
A: 4.60

B5: SDAB22110-2-G1 (peptide)
peptide: VVAFGIS
modifications: also: biotinylated, site not given here
notes: 7-amino acid peptide from a phage display library
Q: Which OD450 [3] does the source give for B5 here?
A: 0.088 OD450

Q: And the OD450 [4]?
A: 0.102 OD450

Q: What about the OD450 [5] of the same molecule?
A: 0.109 OD450

Q: And the OD450 [6]?
A: 0.082 OD450

Q: What about the OD450 [7] of the same molecule?
A: 0.629 OD450

Q: What about the OD450 [8] of the same molecule?
A: 0.057 OD450

Q: And the OD450 [9]?
A: 0.323 OD450

Q: And the OD450 [10]?
A: 0.293 OD450

Q: What about the OD450 [11] of the same molecule?
A: 0.062 OD450

Q: What about the OD450 [12] of the same molecule?
A: 0.147 OD450

Q: What about the OD450 [13] of the same molecule?
A: 0.145 OD450

Q: And the OD450 [14]?
A: 0.082 OD450

Q: What about the OD450 [15] of the same molecule?
A: 0.073 OD450

Q: What about the OD450 [16] of the same molecule?
A: 0.666 OD450
